# According to the Human Domainome abundance scans (Beltran et al. 2025):
# ± gives the uncertainty stated by the source.
# B1: POU domain, class 4, transcription factor 1, residues 266 to 347; numbered along this chain, Q01851 (parent)
# chain: RELEAFAERFKQRRIKLGVTQADVGSALANLKIPGVGSLSQSTICRFESLTLSHNNMIALKPILQAWLEEAEGAQREKMNKP
# Variants of: B1
# Assay: abundance fitness (aPCA) (normalised: wild type 0, dead -1); higher = more abundant; growth selection in yeast, the domain comes from the species named
# Settings: Homo sapiens
row,Variant,abundance fitness
1,RELEAFAERFKQRRIKHGVTQADVGSALANLKIPGVGSLSQSTICRFESLTLSHNNMIALKPILQAWLEEAEGAQREKMNKP [L17H],-0.54 ± 0.047
2,RELEAFAERFKQRRIKAGVTQADVGSALANLKIPGVGSLSQSTICRFESLTLSHNNMIALKPILQAWLEEAEGAQREKMNKP [L17A],-0.346 ± 0.038
3,RELEAFAERFKQRRIKFGVTQADVGSALANLKIPGVGSLSQSTICRFESLTLSHNNMIALKPILQAWLEEAEGAQREKMNKP [L17F],-0.309 ± 0.039
4,RELEAFAERFKQRRIKEGVTQADVGSALANLKIPGVGSLSQSTICRFESLTLSHNNMIALKPILQAWLEEAEGAQREKMNKP [L17E],-0.804 ± 0.075
5,RELEAFAERFKQRRIKCGVTQADVGSALANLKIPGVGSLSQSTICRFESLTLSHNNMIALKPILQAWLEEAEGAQREKMNKP [L17C],-0.31 ± 0.041
6,RELEAFAERFKQRRIKGGVTQADVGSALANLKIPGVGSLSQSTICRFESLTLSHNNMIALKPILQAWLEEAEGAQREKMNKP [L17G],-0.802 ± 0.082
7,RELEAFAERFKQNRIKLGVTQADVGSALANLKIPGVGSLSQSTICRFESLTLSHNNMIALKPILQAWLEEAEGAQREKMNKP [R13N],-0.156 ± 0.062
8,RELEAFAERFKQPRIKLGVTQADVGSALANLKIPGVGSLSQSTICRFESLTLSHNNMIALKPILQAWLEEAEGAQREKMNKP [R13P],-1.06 ± 0.2
9,RELEAFAERFKQVRIKLGVTQADVGSALANLKIPGVGSLSQSTICRFESLTLSHNNMIALKPILQAWLEEAEGAQREKMNKP [R13V],-0.065 ± 0.035
10,RELEAFAERFKQWRIKLGVTQADVGSALANLKIPGVGSLSQSTICRFESLTLSHNNMIALKPILQAWLEEAEGAQREKMNKP [R13W],-0.321 ± 0.05
11,RELEAFAERFKQTRIKLGVTQADVGSALANLKIPGVGSLSQSTICRFESLTLSHNNMIALKPILQAWLEEAEGAQREKMNKP [R13T],0.008 ± 0.042
12,RELEAFAERFKQIRIKLGVTQADVGSALANLKIPGVGSLSQSTICRFESLTLSHNNMIALKPILQAWLEEAEGAQREKMNKP [R13I],-0.09 ± 0.064
13,RELEAFAERFKQQRIKLGVTQADVGSALANLKIPGVGSLSQSTICRFESLTLSHNNMIALKPILQAWLEEAEGAQREKMNKP [R13Q],-0.053 ± 0.05
14,RELEAFAERFKQSRIKLGVTQADVGSALANLKIPGVGSLSQSTICRFESLTLSHNNMIALKPILQAWLEEAEGAQREKMNKP [R13S],0.014 ± 0.038
15,RELEAFAERFKQMRIKLGVTQADVGSALANLKIPGVGSLSQSTICRFESLTLSHNNMIALKPILQAWLEEAEGAQREKMNKP [R13M],-0.023 ± 0.057
16,RELEAFAERFKQHRIKLGVTQADVGSALANLKIPGVGSLSQSTICRFESLTLSHNNMIALKPILQAWLEEAEGAQREKMNKP [R13H],-0.103 ± 0.062
17,RELEAFAERFKQLRIKLGVTQADVGSALANLKIPGVGSLSQSTICRFESLTLSHNNMIALKPILQAWLEEAEGAQREKMNKP [R13L],-0.148 ± 0.037

row,Variant,abundance fitness
1,RELEAFAERFKQKRIKLGVTQADVGSALANLKIPGVGSLSQSTICRFESLTLSHNNMIALKPILQAWLEEAEGAQREKMNKP [R13K],-0.048 ± 0.051
2,RELEAFAERFKQRRITLGVTQADVGSALANLKIPGVGSLSQSTICRFESLTLSHNNMIALKPILQAWLEEAEGAQREKMNKP [K16T],-0.032 ± 0.028
3,RELEAFAERFKQRRIILGVTQADVGSALANLKIPGVGSLSQSTICRFESLTLSHNNMIALKPILQAWLEEAEGAQREKMNKP [K16I],-0.104 ± 0.037
4,RELEAFAERFKQRRIWLGVTQADVGSALANLKIPGVGSLSQSTICRFESLTLSHNNMIALKPILQAWLEEAEGAQREKMNKP [K16W],-0.177 ± 0.05
5,RELEAFAERFKQRRINLGVTQADVGSALANLKIPGVGSLSQSTICRFESLTLSHNNMIALKPILQAWLEEAEGAQREKMNKP [K16N],0.011 ± 0.035
6,RELEAFAERFKQRRIFLGVTQADVGSALANLKIPGVGSLSQSTICRFESLTLSHNNMIALKPILQAWLEEAEGAQREKMNKP [K16F],-0.138 ± 0.039
7,RELEAFAERFKQRRIHLGVTQADVGSALANLKIPGVGSLSQSTICRFESLTLSHNNMIALKPILQAWLEEAEGAQREKMNKP [K16H],-0.029 ± 0.034
8,RELEAFAERFKQRRICLGVTQADVGSALANLKIPGVGSLSQSTICRFESLTLSHNNMIALKPILQAWLEEAEGAQREKMNKP [K16C],-0.004 ± 0.055
9,RELEAFAERFKQRRIDLGVTQADVGSALANLKIPGVGSLSQSTICRFESLTLSHNNMIALKPILQAWLEEAEGAQREKMNKP [K16D],0.029 ± 0.049
10,RELEAFAERFKQRRIPLGVTQADVGSALANLKIPGVGSLSQSTICRFESLTLSHNNMIALKPILQAWLEEAEGAQREKMNKP [K16P],-0.888 ± 0.053
11,RELEAFAERFKQRRIYLGVTQADVGSALANLKIPGVGSLSQSTICRFESLTLSHNNMIALKPILQAWLEEAEGAQREKMNKP [K16Y],-0.129 ± 0.037
12,RELEAFAERFKQRRIALGVTQADVGSALANLKIPGVGSLSQSTICRFESLTLSHNNMIALKPILQAWLEEAEGAQREKMNKP [K16A],0.085 ± 0.034
13,RELEAFAERFKQRRIRLGVTQADVGSALANLKIPGVGSLSQSTICRFESLTLSHNNMIALKPILQAWLEEAEGAQREKMNKP [K16R],0.035 ± 0.034
14,RELEAFAERFKQRRIELGVTQADVGSALANLKIPGVGSLSQSTICRFESLTLSHNNMIALKPILQAWLEEAEGAQREKMNKP [K16E],0.063 ± 0.048
15,RELEAFAERFKQRRIQLGVTQADVGSALANLKIPGVGSLSQSTICRFESLTLSHNNMIALKPILQAWLEEAEGAQREKMNKP [K16Q],0.027 ± 0.032
16,RELEAFAERFKQRRISLGVTQADVGSALANLKIPGVGSLSQSTICRFESLTLSHNNMIALKPILQAWLEEAEGAQREKMNKP [K16S],0.013 ± 0.027
17,RELEAFAERFKQRRILLGVTQADVGSALANLKIPGVGSLSQSTICRFESLTLSHNNMIALKPILQAWLEEAEGAQREKMNKP [K16L],-0.071 ± 0.025
